Source: patent US20160376596A1 (BAVARIAN NORDIC A S, published 2016)

Biological target: T1, B19 protein of chorioallantois vaccinia virus Ankara (CVA) (Vaccinia virus, strain Ankara (CVA), UniProt P23998 20-351)
T1 construct: also called orthopoxviral B19 protein
Assay: statement in Example 3; no assay described for IFN-β

B1: murine IFN-beta (ligand)
chain: INYKQLQLQERTNIRKCQELLEQLNGKINLTYRADFKIPMEMTEKMQKSYTAFAIQEMLQNVFLVFRNNFSSTGWNETIVVRLLDELHQQTVFLKTVLEEKQEERLTWEMSSTALHLKSYYWRVQRYLKLMKYNSYAWMVVRAEIFRNFLIIRRLTRNFQN
notes: also called IFN-β; murine IFN-β
- binding result: no binding
